Square brackets hold non-standard residues; d marks the D form. Phe(4-guanidino) = N=C(N)Nc1ccc(C[C@H](N)C(=O)O)cc1
Target: Lactate dehydrogenase A [LDHA] (human, UniProt P00338 2-332)
Test: cell-based or functional assay

IC50 of LDH activity (Abcam LDH activity kit, lysates of NCI-H460 cells treated for 24 or 96 h) [µM]	Binder
22	cyclo(PRGPRPVWW[Phe(4-guanidino)][Phe(4-guanidino)]WW[Phe(4-guanidino)][Phe(4-guanidino)]WW) [HILR-030 (cyclo-[Pro-Arg-Gly-Pro-Arg-Pro-Val-Trp-Trp-Gpa-Gpa-Trp-Trp-Gpa-Gpa-Trp-Trp])]
16	PRGPRPVWWRRWWRRWW (cyclic peptide (cyclo-[...])) [HILR-025 (cyclo-[Pro-Arg-Gly-Pro-Arg-Pro-Val-Trp-Trp-Arg-Arg-Trp-Trp-Arg-Arg-Trp-Trp])]

Source: patent US20190046600A1 (published 2019)
